How the values were obtained:
Assay in all cases: ELISA, antibody coated, OX40-ECD.His mutant supernatant; relative to silent alanine substitutions;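 note: captured OX40 mutant protein detected with HRP-labelled anti-His antibody, absorbance read-out, scaled to the mean signal of control mutants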
human OX40-ECD.His P69A = target: T1, human OX40-ECD.His P69A (human, UniProt P43489 29-214)
T1 construct: extracellular domain; not shown: C-terminal His-tag
T1 sequence (looked up): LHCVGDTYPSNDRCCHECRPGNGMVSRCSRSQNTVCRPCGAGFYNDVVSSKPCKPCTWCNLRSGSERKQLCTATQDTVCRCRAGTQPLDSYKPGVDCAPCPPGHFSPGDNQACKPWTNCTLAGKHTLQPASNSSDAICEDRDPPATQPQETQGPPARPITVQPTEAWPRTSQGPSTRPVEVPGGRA

human OX40-ECD.His D170A = target: T2, human OX40-ECD.His D170A (human, UniProt P43489 29-214)
T2 construct: extracellular domain; not shown: C-terminal His-tag
T2 sequence (looked up): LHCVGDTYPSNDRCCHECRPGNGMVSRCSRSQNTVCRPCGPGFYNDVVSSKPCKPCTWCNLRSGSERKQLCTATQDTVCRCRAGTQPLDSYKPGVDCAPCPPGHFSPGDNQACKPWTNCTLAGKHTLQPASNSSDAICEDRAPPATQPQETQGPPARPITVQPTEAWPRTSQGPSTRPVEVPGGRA

human OX40-ECD.His P83A = target: T3, human OX40-ECD.His P83A (human, UniProt P43489 29-214)
T3 construct: extracellular domain; not shown: C-terminal His-tag
T3 sequence (looked up): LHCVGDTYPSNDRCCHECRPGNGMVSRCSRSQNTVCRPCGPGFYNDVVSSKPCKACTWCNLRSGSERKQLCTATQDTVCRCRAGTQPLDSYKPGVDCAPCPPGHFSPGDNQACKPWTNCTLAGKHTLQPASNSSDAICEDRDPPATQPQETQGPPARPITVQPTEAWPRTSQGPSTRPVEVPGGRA

human OX40-ECD.His T62A = target: T4, human OX40-ECD.His T62A (human, UniProt P43489 29-214)
T4 construct: extracellular domain; not shown: C-terminal His-tag
T4 sequence (looked up): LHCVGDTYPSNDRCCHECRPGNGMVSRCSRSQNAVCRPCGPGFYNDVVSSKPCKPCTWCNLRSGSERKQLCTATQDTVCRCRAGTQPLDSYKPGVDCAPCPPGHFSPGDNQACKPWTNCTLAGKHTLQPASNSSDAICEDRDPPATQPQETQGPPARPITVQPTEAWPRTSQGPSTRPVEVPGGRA

human OX40-ECD.His Q103A = target: T5, human OX40-ECD.His Q103A (human, UniProt P43489 29-214)
T5 construct: extracellular domain; not shown: C-terminal His-tag
T5 sequence (looked up): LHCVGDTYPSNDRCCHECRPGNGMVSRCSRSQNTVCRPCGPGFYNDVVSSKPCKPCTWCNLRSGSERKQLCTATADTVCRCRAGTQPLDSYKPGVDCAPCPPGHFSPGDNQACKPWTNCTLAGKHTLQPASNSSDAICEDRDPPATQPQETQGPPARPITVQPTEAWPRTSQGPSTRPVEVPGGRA

human OX40-ECD.His S57A = target: T6, human OX40-ECD.His S57A (human, UniProt P43489 29-214)
T6 construct: extracellular domain; not shown: C-terminal His-tag
T6 sequence (looked up): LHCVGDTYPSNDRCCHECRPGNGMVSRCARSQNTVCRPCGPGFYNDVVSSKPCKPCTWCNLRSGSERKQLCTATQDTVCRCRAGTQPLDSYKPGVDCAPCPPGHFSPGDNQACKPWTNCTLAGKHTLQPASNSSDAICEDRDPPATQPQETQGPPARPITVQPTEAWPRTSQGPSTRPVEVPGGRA

human OX40-ECD.His S78A = target: T7, human OX40-ECD.His S78A (human, UniProt P43489 29-214)
T7 construct: extracellular domain; not shown: C-terminal His-tag
T7 sequence (looked up): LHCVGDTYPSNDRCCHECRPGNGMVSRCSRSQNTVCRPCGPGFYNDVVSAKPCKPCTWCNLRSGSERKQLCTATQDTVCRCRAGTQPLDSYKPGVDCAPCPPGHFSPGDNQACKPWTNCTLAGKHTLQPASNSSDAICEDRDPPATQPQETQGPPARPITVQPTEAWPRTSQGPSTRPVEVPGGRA

human OX40-ECD.His S118A = target: T8, human OX40-ECD.His S118A (human, UniProt P43489 29-214)
T8 construct: extracellular domain; not shown: C-terminal His-tag
T8 sequence (looked up): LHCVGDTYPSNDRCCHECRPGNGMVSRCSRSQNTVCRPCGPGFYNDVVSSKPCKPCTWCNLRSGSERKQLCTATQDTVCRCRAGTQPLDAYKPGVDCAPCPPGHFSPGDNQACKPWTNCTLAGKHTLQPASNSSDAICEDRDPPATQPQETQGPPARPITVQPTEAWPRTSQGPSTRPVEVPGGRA

human OX40-ECD.His D124A = target: T9, human OX40-ECD.His D124A (human, UniProt P43489 29-214)
T9 construct: extracellular domain; not shown: C-terminal His-tag
T9 sequence (looked up): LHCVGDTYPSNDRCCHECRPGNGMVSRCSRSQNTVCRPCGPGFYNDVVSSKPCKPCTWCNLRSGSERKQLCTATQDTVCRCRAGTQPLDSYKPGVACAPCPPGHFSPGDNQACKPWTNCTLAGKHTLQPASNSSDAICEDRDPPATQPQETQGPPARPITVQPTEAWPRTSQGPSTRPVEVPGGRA

human OX40-ECD.His V123A = target: T10, human OX40-ECD.His V123A (human, UniProt P43489 29-214)
T10 construct: extracellular domain; not shown: C-terminal His-tag
T10 sequence (looked up): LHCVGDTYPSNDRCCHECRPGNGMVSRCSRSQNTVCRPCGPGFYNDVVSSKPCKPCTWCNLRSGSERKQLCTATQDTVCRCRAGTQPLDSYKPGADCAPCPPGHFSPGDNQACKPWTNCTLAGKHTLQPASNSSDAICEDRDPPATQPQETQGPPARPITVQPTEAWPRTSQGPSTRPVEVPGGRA

B1: 1.134.9-u1-IgG1L (antibody, V domains shown)
VH: QVQLQESGPGLVKPSGTLSLTCAVSGGSISSYNWWSWVRQPPGKGLEWIGEIYHGGNTNYNPSLKSRVTMSVDNSKNQFSLKLSSVTAADTAVYYCARAPGDWGGSPYFDFWGQGTLVTVSS
VL: SSELTQDPAVSVALGQTVRITCQGDNLRTYYASWYQQKPGQAPILLIYGRNKRPSGIPDRFSGSSSGNTASLTITGAQAEDEAAYYCNSRDSSGNPVVFGGGTKLTVL
notes: fully human IgG1, lambda
B1 was tested, and the “Fold Change” value (human OX40-ECD.His P69A) was 0.987, the “Fold Change” value (human OX40-ECD.His D170A) was 1.01 and the “Fold Change” value (human OX40-ECD.His P83A) was 0.918. The “Fold Change” value (human OX40-ECD.His T62A) was 0.923, the “Fold Change” value (human OX40-ECD.His Q103A) was 0.974 and the “Fold Change” value (human OX40-ECD.His S57A) was 0.963. The “Fold Change” value (human OX40-ECD.His S78A) was 1, the “Fold Change” value (human OX40-ECD.His S118A) was 0.969 and the “Fold Change” value (human OX40-ECD.His D124A) was 0.989. The “Fold Change” value (human OX40-ECD.His V123A) was 1.
